Laboratory results taken from article doi:10.1101/2025.07.03.662971.

What was measured:
[1] = target: FITC labeled GKAP C-terminus peptide (CT12) (human); assay: fluorescence polarisation
[2] = target: 6xHis-tagged GH1 or CT43 protein (ligand of the Ni-NTA BLI) (rat) (UniProt P97836); assay: BLI
[3] = target: GST-tagged 12 amino acid ARAP3 peptide (human); assay: BLI
[4] = target: GST-tagged 12 amino acid ATG13 peptide (human); assay: BLI
[5] = target: GST-tagged 12 amino acid mTOR peptide (human); assay: BLI
[6] = target: GST-tagged 12 amino acid βPIX peptide (human); assay: BLI

Chain of 6xHis-tagged GH1 or CT43 protein (ligand of the Ni-NTA BLI) (rat) (P97836 807-992): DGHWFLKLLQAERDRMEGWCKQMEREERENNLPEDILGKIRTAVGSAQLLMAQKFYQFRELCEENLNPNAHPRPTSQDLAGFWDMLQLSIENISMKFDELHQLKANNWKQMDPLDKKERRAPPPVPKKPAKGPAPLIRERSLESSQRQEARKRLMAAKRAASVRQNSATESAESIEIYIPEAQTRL

Substance	Kd [1]	Kd [2]	other results
Shank1-PDZ R679W variant (domain or fragment)	325 µM	14.5 µM	
Shank1-PDZ R743H variant (domain or fragment)	7.62 µM		
wild type Shank1-PDZ domain (domain or fragment)	4.59 µM	1.5 µM	Kd [3]: 35.8 µM; Kd [4]: 39.1 µM; Kd [5]: 720 µM; Kd [6]: 23.2 µM

Now from value to substance, other results behind:

Kd [1]	Kd [2]	Substance	other results
10.6 µM		Shank1-PDZ G734S variant (domain or fragment)	
2.55 µM		Shank1-PDZ R736Q variant (domain or fragment)	
16.9 µM		Shank1-PDZ V677M variant (domain or fragment)	
